Measurements published in patent publication US20080044360A1 (COLLAGEN MEDICAL, published 2008).
Read-outs that look alike come from different tables or passages of the source. Values belong to the binder of their own block, whether it stands above or below them. Bridge positions count the residues as written; N and C are the ends. Square brackets hold non-standard residues; d marks the D form. Ends that are not written are not given here. Gd^D = GdDOTAGA (gadolinium DOTAGA chelate)

Legend:
Assay in all cases: dried collagen assay
[1] = target: T1, human collagen type I, acid soluble, extracted from placenta (Sigma C7774) (human, UniProt P02452 162-1218; P08123 80-1119)
T1 construct: tissue extract, gelled and dried in wells; also called dried human collagen; h-Collagen
Method: An additional 90 μL is reserved in a HPLC glass vial as a measure of the total concentration.

[2] = target: T2, rat collagen, acid soluble, type I, rat tail (Upstate 08-115) (rat, UniProt P02454 152-1207; P02466 86-1125)
T2 construct: tissue extract, gelled and dried in wells; also called dried rat collagen

[3] = target: T1, human collagen type I, acid soluble, …; remark: listed apart in the source

T1 sequence (P02452 162-1218 limits assumed, chain 1 of 2): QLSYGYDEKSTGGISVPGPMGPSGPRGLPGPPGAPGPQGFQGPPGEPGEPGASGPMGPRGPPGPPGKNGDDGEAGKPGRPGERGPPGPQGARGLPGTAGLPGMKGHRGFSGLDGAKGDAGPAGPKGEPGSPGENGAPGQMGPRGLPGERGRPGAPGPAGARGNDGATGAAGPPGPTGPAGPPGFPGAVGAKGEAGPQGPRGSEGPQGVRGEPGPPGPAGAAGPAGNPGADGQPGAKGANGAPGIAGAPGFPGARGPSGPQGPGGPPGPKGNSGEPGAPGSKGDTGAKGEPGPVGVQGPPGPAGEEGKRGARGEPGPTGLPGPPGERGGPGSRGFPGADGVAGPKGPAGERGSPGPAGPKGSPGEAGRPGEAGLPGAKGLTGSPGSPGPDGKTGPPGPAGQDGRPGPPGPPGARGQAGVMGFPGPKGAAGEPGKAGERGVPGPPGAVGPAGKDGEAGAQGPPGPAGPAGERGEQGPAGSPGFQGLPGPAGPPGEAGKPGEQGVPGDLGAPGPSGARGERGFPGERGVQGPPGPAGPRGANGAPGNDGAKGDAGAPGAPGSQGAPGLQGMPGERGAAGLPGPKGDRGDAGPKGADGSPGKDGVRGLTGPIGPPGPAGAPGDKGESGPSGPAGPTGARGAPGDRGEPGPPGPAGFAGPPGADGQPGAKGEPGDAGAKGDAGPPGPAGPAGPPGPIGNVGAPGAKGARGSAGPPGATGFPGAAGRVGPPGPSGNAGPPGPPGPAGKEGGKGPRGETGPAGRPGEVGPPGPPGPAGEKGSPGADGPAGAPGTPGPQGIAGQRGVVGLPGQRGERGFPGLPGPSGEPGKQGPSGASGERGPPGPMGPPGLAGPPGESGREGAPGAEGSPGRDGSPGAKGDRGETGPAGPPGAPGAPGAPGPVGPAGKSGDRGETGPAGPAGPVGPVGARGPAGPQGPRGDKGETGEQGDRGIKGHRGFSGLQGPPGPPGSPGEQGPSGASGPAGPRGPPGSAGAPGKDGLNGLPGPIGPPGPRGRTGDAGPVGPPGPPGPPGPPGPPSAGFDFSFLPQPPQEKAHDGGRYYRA
T1 sequence (P08123 80-1119 limits assumed, chain 2 of 2): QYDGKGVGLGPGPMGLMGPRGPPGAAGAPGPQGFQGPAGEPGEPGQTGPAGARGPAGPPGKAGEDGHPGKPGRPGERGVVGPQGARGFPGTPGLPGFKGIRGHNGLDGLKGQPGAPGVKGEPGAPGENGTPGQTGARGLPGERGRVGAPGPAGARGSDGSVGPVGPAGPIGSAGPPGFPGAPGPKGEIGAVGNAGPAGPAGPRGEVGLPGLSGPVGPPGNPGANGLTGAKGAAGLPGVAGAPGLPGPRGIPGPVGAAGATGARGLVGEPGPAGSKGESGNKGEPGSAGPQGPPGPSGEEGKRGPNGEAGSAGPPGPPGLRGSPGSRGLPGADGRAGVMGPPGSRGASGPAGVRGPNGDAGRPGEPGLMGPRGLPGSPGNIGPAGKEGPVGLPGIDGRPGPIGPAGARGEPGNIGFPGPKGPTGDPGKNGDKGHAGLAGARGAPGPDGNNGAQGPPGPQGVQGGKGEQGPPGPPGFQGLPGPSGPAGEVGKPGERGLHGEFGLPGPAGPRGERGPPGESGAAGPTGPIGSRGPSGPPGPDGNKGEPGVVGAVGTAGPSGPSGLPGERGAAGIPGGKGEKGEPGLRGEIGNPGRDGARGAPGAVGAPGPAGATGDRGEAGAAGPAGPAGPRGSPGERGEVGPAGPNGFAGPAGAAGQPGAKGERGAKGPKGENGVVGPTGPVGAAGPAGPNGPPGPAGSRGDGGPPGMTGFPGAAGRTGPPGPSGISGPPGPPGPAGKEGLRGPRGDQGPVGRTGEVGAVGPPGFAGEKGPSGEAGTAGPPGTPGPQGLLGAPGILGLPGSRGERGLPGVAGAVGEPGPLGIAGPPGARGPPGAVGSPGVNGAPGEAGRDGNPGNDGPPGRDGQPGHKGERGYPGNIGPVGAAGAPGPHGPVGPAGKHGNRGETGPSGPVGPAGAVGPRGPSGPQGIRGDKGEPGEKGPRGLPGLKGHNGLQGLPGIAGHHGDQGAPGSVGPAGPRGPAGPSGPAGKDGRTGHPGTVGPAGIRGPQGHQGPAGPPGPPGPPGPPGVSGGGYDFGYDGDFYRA
T2 sequence (P02454 152-1207, chain 1 of 2): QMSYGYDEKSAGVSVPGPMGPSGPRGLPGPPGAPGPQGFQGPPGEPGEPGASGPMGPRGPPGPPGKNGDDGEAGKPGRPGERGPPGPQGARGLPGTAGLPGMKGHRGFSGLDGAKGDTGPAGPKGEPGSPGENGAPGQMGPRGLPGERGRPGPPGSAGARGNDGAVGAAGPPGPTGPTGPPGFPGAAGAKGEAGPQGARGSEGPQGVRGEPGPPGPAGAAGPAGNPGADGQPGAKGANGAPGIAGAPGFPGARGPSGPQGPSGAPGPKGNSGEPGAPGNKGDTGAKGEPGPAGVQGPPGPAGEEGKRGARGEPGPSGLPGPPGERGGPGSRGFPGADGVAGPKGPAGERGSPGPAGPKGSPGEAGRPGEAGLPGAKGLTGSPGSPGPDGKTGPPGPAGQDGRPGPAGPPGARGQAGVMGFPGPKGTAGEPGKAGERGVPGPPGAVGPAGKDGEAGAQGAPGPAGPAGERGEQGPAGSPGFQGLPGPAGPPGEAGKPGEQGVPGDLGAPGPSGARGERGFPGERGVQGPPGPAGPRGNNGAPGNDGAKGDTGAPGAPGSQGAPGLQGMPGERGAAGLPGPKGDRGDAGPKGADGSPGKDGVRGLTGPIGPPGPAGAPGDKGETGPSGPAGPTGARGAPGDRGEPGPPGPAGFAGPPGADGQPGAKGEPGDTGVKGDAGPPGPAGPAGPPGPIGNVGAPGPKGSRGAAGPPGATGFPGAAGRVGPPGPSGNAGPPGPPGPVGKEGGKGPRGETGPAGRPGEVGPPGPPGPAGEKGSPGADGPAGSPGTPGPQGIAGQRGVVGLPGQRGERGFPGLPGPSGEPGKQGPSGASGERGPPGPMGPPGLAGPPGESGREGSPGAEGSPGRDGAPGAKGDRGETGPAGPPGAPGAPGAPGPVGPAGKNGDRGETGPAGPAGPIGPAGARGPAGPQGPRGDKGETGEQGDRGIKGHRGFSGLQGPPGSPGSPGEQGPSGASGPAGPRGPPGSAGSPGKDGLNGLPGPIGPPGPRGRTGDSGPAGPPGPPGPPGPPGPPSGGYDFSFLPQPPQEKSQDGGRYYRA
T2 sequence (P02466 86-1125, chain 2 of 2): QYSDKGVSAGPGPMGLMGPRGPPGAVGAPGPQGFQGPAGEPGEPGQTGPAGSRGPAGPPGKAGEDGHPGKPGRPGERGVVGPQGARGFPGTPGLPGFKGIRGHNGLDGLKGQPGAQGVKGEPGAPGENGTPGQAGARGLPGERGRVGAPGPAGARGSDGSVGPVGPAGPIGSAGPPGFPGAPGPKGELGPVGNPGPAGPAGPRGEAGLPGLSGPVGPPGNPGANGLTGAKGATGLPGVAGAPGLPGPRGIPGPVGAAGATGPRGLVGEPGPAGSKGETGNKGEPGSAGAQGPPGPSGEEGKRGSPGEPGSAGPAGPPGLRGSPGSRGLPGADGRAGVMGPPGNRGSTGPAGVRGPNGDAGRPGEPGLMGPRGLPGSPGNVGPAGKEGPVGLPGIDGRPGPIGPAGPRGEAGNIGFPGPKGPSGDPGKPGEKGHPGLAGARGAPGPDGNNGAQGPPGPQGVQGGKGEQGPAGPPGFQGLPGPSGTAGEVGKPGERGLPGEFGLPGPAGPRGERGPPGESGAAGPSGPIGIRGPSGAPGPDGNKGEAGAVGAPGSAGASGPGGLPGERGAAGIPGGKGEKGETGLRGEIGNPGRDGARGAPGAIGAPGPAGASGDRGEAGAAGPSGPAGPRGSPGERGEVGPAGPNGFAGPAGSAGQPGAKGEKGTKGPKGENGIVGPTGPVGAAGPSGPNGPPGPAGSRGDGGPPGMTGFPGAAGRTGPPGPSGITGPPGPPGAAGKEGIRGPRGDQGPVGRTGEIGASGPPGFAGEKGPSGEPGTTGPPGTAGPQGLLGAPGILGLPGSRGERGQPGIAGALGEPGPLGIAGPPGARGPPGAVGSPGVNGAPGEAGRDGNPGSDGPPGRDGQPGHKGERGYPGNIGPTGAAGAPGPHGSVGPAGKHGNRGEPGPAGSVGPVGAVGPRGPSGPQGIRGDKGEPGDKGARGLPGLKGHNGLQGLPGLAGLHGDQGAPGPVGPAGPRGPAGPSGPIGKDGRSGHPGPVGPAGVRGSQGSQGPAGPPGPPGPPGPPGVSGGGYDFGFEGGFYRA

B2: SEQ ID NO 42 (peptide)
peptide: TWRCDQFKGKWVCRGG
modifications: disulfide 4-13 (inferred)
notes: cyclic, disulfide
- % bound [1]: 40%

B3: SEQ ID NO 103 (peptide)
peptide: YPACDDQTHLWNLACWPA
modifications: disulfide 4-15 (inferred)
notes: cyclic, disulfide
- % bound [1]: 2%

B5: SEQ ID NO 32 (peptide)
peptide: NWVCSGDHADWSCALI
modifications: disulfide 4-13 (inferred)
notes: cyclic, disulfide
- % bound [1]: 12%

B6: SEQ ID NO 25 (peptide)
peptide: IWLCTGGAATWNCKFD
modifications: disulfide 4-13 (inferred)
notes: cyclic, disulfide
- % bound [1]: 39%

B8: SEQ ID NO 5 (peptide)
peptide: NWKCWGVVKWECIWA
modifications: disulfide 4-12 (inferred)
notes: cyclic, disulfide
- % bound [1]: 24%

B10: SEQ ID NO 21 (peptide)
peptide: DWTCVGDHKTWKCNFH
modifications: disulfide 4-13 (inferred)
notes: cyclic, disulfide
- % bound [1]: 57%

B11: SEQ ID NO 10 (peptide)
peptide: LTVCHPPYYGRCNFV
modifications: disulfide 4-12 (inferred)
notes: cyclic, disulfide
- % bound [1]: 9%

B12: SEQ ID NO 94 (peptide)
peptide: WTDCQWMDEQLWTCRWD
modifications: disulfide 4-14 (inferred)
notes: cyclic, disulfide
- % bound [1]: 21%

B18: SEQ ID NO 26 (peptide)
peptide: WRCDGDAHDWHCDWF
modifications: disulfide 3-12 (inferred)
notes: cyclic, disulfide
- % bound [1]: 25%

B20: SEQ ID NO 23 (peptide)
peptide: AWDCSGNIPTWYCRRL
modifications: disulfide 4-13 (inferred)
notes: cyclic, disulfide
- % bound [1]: 44%

B25: SEQ ID NO 7 (peptide)
peptide: NWYCTGTKSWECFWK
modifications: disulfide 4-12 (inferred)
notes: cyclic, disulfide
- % bound [1]: 11%

B26: SEQ ID NO 47 (peptide)
peptide: PWTCRMTENTWVCDLN
modifications: disulfide 4-13 (inferred)
notes: cyclic, disulfide
- % bound [1]: 22%

B27: SEQ ID NO 28 (peptide)
peptide: SWICTGDNIDWNCRFA
modifications: disulfide 4-13 (inferred)
notes: cyclic, disulfide
- % bound [1]: 20%

B28: SEQ ID NO 46 (peptide)
peptide: GWVCLQKGPKWVCDWD
modifications: disulfide 4-13 (inferred)
notes: cyclic, disulfide
- % bound [1]: 23%

B30: Compound ID 1018 (peptide)
peptide: {Gd^D}-K(Gd^D)K(Gd^D)YWHCYTYFPHHYCVYG
modifications: disulfide 6-15 (inferred)
- % bound [2]: 55%
- % bound [3]: 53%

B31: SEQ ID NO 93 (peptide)
peptide: WWACQKGQHDWEKCHWL
modifications: disulfide 4-14 (inferred)
notes: cyclic, disulfide
- % bound [1]: 5%

B32: SEQ ID NO 20 (peptide)
peptide: PWYCSGDHLDWKCIYQ
modifications: disulfide 4-13 (inferred)
notes: cyclic, disulfide
- % bound [1]: 64%

B35: SEQ ID NO 17 (peptide)
peptide: DWTCSGDEYTWHCNYE
modifications: disulfide 4-13 (inferred)
notes: cyclic, disulfide
- % bound [1]: 78%

B38: SEQ ID NO 169 (peptide)
peptide: QWTCSG[dD]EYTWHCNYE
modifications: disulfide 4-13 (inferred); not fully specified (N-terminus); printed as QWTCSGdEYTWHCNYE
notes: cyclic, disulfide
- % bound [1]: 11%

B39: SEQ ID NO 14 (peptide)
peptide: DWTCRGDEYTWHCNYE
modifications: disulfide 4-13 (inferred)
notes: cyclic, disulfide
- % bound [1]: 83%

B40: SEQ ID NO 18 (peptide)
peptide: DWTCSGDEYTWYCNYE
modifications: disulfide 4-13 (inferred)
notes: cyclic, disulfide
- % bound [1]: 78%

B47: SEQ ID NO 9 (peptide)
peptide: TWNCYGVTEWHCYMI
modifications: disulfide 4-12 (inferred)
notes: cyclic, disulfide
- % bound [1]: 7%

B48: SEQ ID NO 6 (peptide)
peptide: TWQCSGNQKWSCEWF
modifications: disulfide 4-12 (inferred)
notes: cyclic, disulfide
- % bound [1]: 20%

B50: SEQ ID NO 22 (peptide)
peptide: DWECHGNEFEWNCLMR
modifications: disulfide 4-13 (inferred)
notes: cyclic, disulfide
- % bound [1]: 55%

B51: SEQ ID NO 24 (peptide)
peptide: EWLCVGDSLKWYCKHS
modifications: disulfide 4-13 (inferred)
notes: cyclic, disulfide
- % bound [1]: 43%

B52: SEQ ID NO 101 (peptide)
peptide: WWTCHMTWSGQWDSCKWH
modifications: disulfide 4-15 (inferred)
notes: cyclic, disulfide
- % bound [1]: 56%

B53: SEQ ID NO 12 (peptide)
peptide: PMICHAPYVGKCNFL
modifications: disulfide 4-12 (inferred)
notes: cyclic, disulfide
- % bound [1]: 7%

Further lines, results first:

- % bound [1]: 16%
B1: SEQ ID NO 30 (peptide)
peptide: GWDCQGTDNIWECVRK
modifications: disulfide 4-13 (inferred)
notes: cyclic, disulfide

- % bound [1]: 3%
B4: SEQ ID NO 40 (peptide)
peptide: EWRCRGDSSSWLCDYT
modifications: disulfide 4-13 (inferred)
notes: cyclic, disulfide

- % bound [1]: 15%
B7: SEQ ID NO 31 (peptide)
peptide: GWVCGGDHTTWECHLQ
modifications: disulfide 4-13 (inferred)
notes: cyclic, disulfide

- % bound [1]: 9%
B9: SEQ ID NO 107 (peptide)
peptide: YHACYQAGCYIW
modifications: disulfide 4-9 (inferred)
notes: cyclic, disulfide

- % bound [1]: 5%
B13: SEQ ID NO 95 (peptide)
peptide: WTDCQWMDEQIWTCRWD
modifications: disulfide 4-14 (inferred)
notes: cyclic, disulfide

- % bound [1]: 30%
B14: SEQ ID NO 43 (peptide)
peptide: PWQCYSDKTSWVCNLY
modifications: disulfide 4-13 (inferred)
notes: cyclic, disulfide

- % bound [1]: 9%
B15: SEQ ID NO 8 (peptide)
peptide: GWQCFGASDWHCTWV
modifications: disulfide 4-12 (inferred)
notes: cyclic, disulfide

- % bound [1]: 24%
B16: SEQ ID NO 27 (peptide)
peptide: SWHCFGDNENWMCNLR
modifications: disulfide 4-13 (inferred)
notes: cyclic, disulfide

- % bound [1]: 16%
B17: SEQ ID NO 29 (peptide)
peptide: DWICHGDFDTWKCDLQ
modifications: disulfide 4-13 (inferred)
notes: cyclic, disulfide

- % bound [1]: 31%
B19: SEQ ID NO 102 (peptide)
peptide: WAYCMTDPSGKYRYCQNW
modifications: disulfide 4-15 (inferred)
notes: cyclic, disulfide

- % bound [1]: 12%
B21: SEQ ID NO 33 (peptide)
peptide: AWTCVGGEKTWGCVWN
modifications: disulfide 4-13 (inferred)
notes: cyclic, disulfide

- % bound [1]: 67%
B22: SEQ ID NO 100 (peptide)
peptide: WWGCRQGTGEHWSHCMWF
modifications: disulfide 4-15 (inferred)
notes: cyclic, disulfide

- % bound [1]: 8%
B23: SEQ ID NO 35 (peptide)
peptide: YWVCGGDHQSWHCSHP
modifications: disulfide 4-13 (inferred)
notes: cyclic, disulfide

- % bound [1]: 11%
B24: SEQ ID NO 34 (peptide)
peptide: MWDCTGNSAEWRCEMQ
modifications: disulfide 4-13 (inferred)
notes: cyclic, disulfide

- % bound [2]: 18%
- % bound [3]: 25%
B29: Compound ID 1017 (peptide)
peptide: {Gd^D}-K(Gd^D)K(Gd^D)LWHCYTYFPHHYCVYG
modifications: disulfide 6-15 (inferred)

- % bound [1]: 28%
B33: SEQ ID NO 44 (peptide)
peptide: GWNCYEYDSQWICDHL
modifications: disulfide 4-13 (inferred)
notes: cyclic, disulfide

- % bound [1]: 25%
B34: SEQ ID NO 45 (peptide)
peptide: EWQCTQYANQWNCKYN
modifications: disulfide 4-13 (inferred)
notes: cyclic, disulfide

- % bound [1]: 13%
B36: SEQ ID NO 171 (peptide)
peptide: QWTCSGDE[dY]TWHCNYE
modifications: disulfide 4-13 (inferred); not fully specified (N-terminus); printed as QWTCSGDEyTWHCNYE
notes: cyclic, disulfide

- % bound [1]: 70%
B37: SEQ ID NO 19 (peptide)
peptide: DWTCSGDEYRWHCNYE
modifications: disulfide 4-13 (inferred)
notes: cyclic, disulfide

- % bound [1]: 9%
B41: SEQ ID NO 142 (peptide)
peptide: GQWTCSADEYTWHCNYE
modifications: disulfide 5-14 (inferred)
notes: cyclic, disulfide

- % bound [1]: 83%
B42: SEQ ID NO 16 (peptide)
peptide: DWTCSGDEYYWHCNYE
modifications: disulfide 4-13 (inferred); not fully specified (C-terminus)
notes: cyclic, disulfide

- % bound [1]: 83%
B43: SEQ ID NO 15 (peptide)
peptide: DWTCYGDEYTWHCNYE
modifications: disulfide 4-13 (inferred); not fully specified (C-terminus)
notes: cyclic, disulfide

- % bound [1]: 17%
B44: SEQ ID NO 96 (peptide)
peptide: WQLCSSRNDHVAYCFVS
modifications: disulfide 4-14 (inferred)
notes: cyclic, disulfide

- % bound [1]: 9%
B45: SEQ ID NO 11 (peptide)
peptide: PLVCHPPYSGSCSLH
modifications: disulfide 4-12 (inferred)
notes: cyclic, disulfide

- % bound [1]: 13%
B46: SEQ ID NO 97 (peptide)
peptide: WISCESSEEKISYCWRA
modifications: disulfide 4-14 (inferred)
notes: cyclic, disulfide

- % bound [1]: 1%
B49: SEQ ID NO 41 (peptide)
peptide: VWACRGGTTNWHCDL
modifications: disulfide 4-13 (inferred)
notes: cyclic, disulfide
